Source: article PMC9812531 (Nature structural & molecular biology, 2021)
Where two headings read alike, the source gives them in different places. One block for each binder: values may come before it.

What was measured:
Experiment in all cases: cryo-EM structure
[1] = biological target: T1, human SPTLC2 (human, UniProt O15270 1-562, pyridoxal 5'-phosphate (PLP) in aldimine linkage to Lys379)
T1 sequence (looked up): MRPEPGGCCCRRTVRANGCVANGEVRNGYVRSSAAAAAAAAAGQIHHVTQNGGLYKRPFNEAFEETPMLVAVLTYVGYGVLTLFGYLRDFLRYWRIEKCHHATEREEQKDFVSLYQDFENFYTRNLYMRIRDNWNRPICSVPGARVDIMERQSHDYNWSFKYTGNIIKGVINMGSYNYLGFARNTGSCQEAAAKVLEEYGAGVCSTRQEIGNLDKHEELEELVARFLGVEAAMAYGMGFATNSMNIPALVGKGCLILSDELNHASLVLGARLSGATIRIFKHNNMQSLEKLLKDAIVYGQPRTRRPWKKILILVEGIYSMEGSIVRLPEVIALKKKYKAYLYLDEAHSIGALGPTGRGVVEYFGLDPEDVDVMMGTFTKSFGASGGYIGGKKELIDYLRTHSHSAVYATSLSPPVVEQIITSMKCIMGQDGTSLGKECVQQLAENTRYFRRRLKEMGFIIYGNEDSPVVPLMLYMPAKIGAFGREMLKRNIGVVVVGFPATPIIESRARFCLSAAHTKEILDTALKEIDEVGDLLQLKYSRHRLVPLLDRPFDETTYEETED

[2] = biological target: the molecule itself
[3] = biological target: the molecule itself; remark: listed apart in the source

B2: human SPT complex (SPTLC1-SPTLC2-ssSPTa), one protomer (complex)
chain 1: MATATEQWVLVEMVQALYEAPAYHLILEGILILWIIRLLFSKTYKLQERSDLTVKEKEELIEEWQPEPLVPPVPKDHPALNYNIVSGPPSHKTVVNGKECINFASFNFLGLLDNPRVKAAALASLKKYGVGTCGPRGFYGTFDVHLDLEDRLAKFMKTEEAIIYSYGFATIASAIPAYSKRGDIVFVDRAACFAIQKGLQASRSDIKLFKHNDMADLERLLKEQEIEDQKNPRKARVTRRFIVVEGLYMNTGTICPLPELVKLKYKYKARIFLEESLSFGVLGEHGRGVTEHYGINIDDIDLISANMENALASIGGFCCGRSFVIDHQRLSGQGYCFSASLPPLLAAAAIEALNIMEENPGIFAVLKEKCGQIHKALQGISGLKVVGESLSPAFHLQLEESTGSREQDVRLLQEIVDQCMNRSIALTQARYLEKEEKCLPPPSIRVVVTVEQTEEELERAASTIKEVAQAVLL
chain 2: T1 sequence (looked up)
chain 3: MAGMALARAWKQMSWFYYQYLLVTALYMLEPWERTVFNSMLVSIVGMALYTGYVFMPQHIMAILHYFEIVQ
modifications: pyridoxal 5'-phosphate (PLP) in aldimine linkage to Lys379
- stoichiometry N [3]: 2

B3: human SPT-ORMDL3 complex (SPTLC1-SPTLC2-ssSPTa-ORMDL3), one protomer (complex)
chain 1: B2 chain 1
chain 2: T1 sequence (looked up)
chain 3: B2 chain 3
chain 4: MNVGTAHSEVNPNTRVMNSRGIWLSYVLAIGLLHIVLLSIPFVSVPVVWTLTNLIHNMGMYIFLHTVKGTPFETPDQGKARLLTHWEQMDYGVQFTASRKFLTITPIVLYFLTSFYTKYDQIHFVLNTVSLMSVLIPKLPQLHGVRIFGINKY
modifications: pyridoxal 5'-phosphate (PLP) in aldimine linkage to Lys379
- stoichiometry N [2]: 2

Continued, in another order:

- stoichiometry N [1]: 1
B1: human SPTLC1 (natural protein)
chain: B2 chain 1
- binding result [2]: binds

- stoichiometry N [1]: 1
B4: human ssSPTa (natural protein)
chain: B2 chain 3
